US20090111754

How the values were obtained:
p65-P1 = molecular target: T1, p65-P1
T1 chain: QLRRPSDRELSE

p65-P6 = molecular target: T2, p65-P6
T2 chain: NGLLSGDEDFSS

p65-P7 = molecular target: T3, p65-P7
T3 chain: NGLLAGDEDFSS

p65-P8 = molecular target: T4, p65-P8
T4 chain: NGLLSGDEDFSA

B1: IKK complex immunoprecipitated from whole-cell extracts of TNF-treated cells (protein)
chain 1: MERPPGLRPGAGGPWEMRERLGTGGFGNVCLYQHRELDLKIAIKSCRLELSTKNRERWCHEIQIMKKLNHANVVKACDVPEELNILIHDVPLLAMEYCSGGDLRKLLNKPENCCGLKESQILSLLSDIGSGIRYLHENKIIHRDLKPENIVLQDVGGKIIHKIIDLGYAKDVDQGSLCTSFVGTLQYLAPELFENKPYTATVDYWSFGTMVFECIAGYRPFLHHLQPFTWHEKIKKKDPKCIFACEEMSGEVRFSSHLPQPNSLCSLVVEPMENWLQLMLNWDPQQRGGPVDLTLKQPRCFVLMDHILNLKIVHILNMTSAKIISFLLPPDESLHSLQSRIERETGINTGSQELLSETGISLDPRKPASQCVLDGVRGCDSYMVYLFDKSKTVYEGPFASRSLSDCVNYIVQDSKIQLPIIQLRKVWAEAVHYVSGLKEDYSRLFQGQRAAMLSLLRYNANLTKMKNTLISASQQLKAKLEFFHKSIQLDLERYSEQMTYGISSEKMLKAWKEMEEKAIHYAEVGVIGYLEDQIMSLHAEIMELQKSPYGRRQGDLMESLEQRAIDLYKQLKHRPSDHSYSDSTEMVKIIVHTVQSQDRVLKELFGHLSKLLGCKQKIIDLLPKVEVALSNIKEADNTVMFMQGKRQKEIWHLLKIACTQSSARSLVGSSLEGAVTPQTSAWLPPTSAEHDHSLSCVVTPQDGETSAQMIEENLNCLGHLSTIIHEANEEQGNSMMNLDWSWLTE
chain 2: MSWSPSLTTQTCGAWEMKERLGTGGFGNVIRWHNQETGEQIAIKQCRQELSPRNRERWCLEIQIMRRLTHPNVVAARDVPEGMQNLAPNDLPLLAMEYCQGGDLRKYLNQFENCCGLREGAILTLLSDIASALRYLHENRIIHRDLKPENIVLQQGEQRLIHKIIDLGYAKELDQGSLCTSFVGTLQYLAPELLEQQKYTVTVDYWSFGTLAFECITGFRPFLPNWQPVQWHSKVRQKSEVDIVVSEDLNGTVKFSSSLPYPNNLNSVLAERLEKWLQLMLMWHPRQRGTDPTYGPNGCFKALDDILNLKLVHILNMVTGTIHTYPVTEDESLQSLKARIQQDTGIPEEDQELLQEAGLALIPDKPATQCISDGKLNEGHTLDMDLVFLFDNSKITYETQISPRPQPESVSCILQEPKRNLAFFQLRKVWGQVWHSIQTLKEDCNRLQQGQRAAMMNLLRNNSCLSKMKNSMASMSQQLKAKLDFFKTSIQIDLEKYSEQTEFGITSDKLLLAWREMEQAVELCGRENEVKLLVERMMALQTDIVDLQRSPMGRKQGGTLDDLEEQARELYRRLREKPRDQRTEGDSQEMVRLLLQAIQSFEKKVRVIYTQLSKTVVCKQKALELLPKVEEVVSLMNEDEKTVVRLQEKRQKELWNLLKIACSKVRGPVSGSPDSMNASRLSQPGQLMSQPSTASNSLPEPAKKSEELVAEAHNLCTLLENAIQDTVREQDQSFTALDWSWLQTEEEEHSCLEQAS
phosphorylation of peptide substrate in immunocomplex kinase assay (p65-P1): precipitated IKK complex can phosphorylate p65-P1 and p65-p6
phosphorylation of peptide substrate in immunocomplex kinase assay (p65-P2): p65-peptides in which Ser 276, 529 or 536 were mutated into alanine did not undergo phosphorylation by the IKK complex
phosphorylation of peptide substrate in immunocomplex kinase assay (p65-P6): precipitated IKK complex can phosphorylate p65-P1 and p65-p6
phosphorylation of peptide substrate in immunocomplex kinase assay (p65-P7): p65-peptides in which Ser 276, 529 or 536 were mutated into alanine did not undergo phosphorylation by the IKK complex
phosphorylation of peptide substrate in immunocomplex kinase assay (p65-P8): p65-peptides in which Ser 276, 529 or 536 were mutated into alanine did not undergo phosphorylation by the IKK complex
